Results: patent WO2021032966A1 (dated 2021)

How the values were obtained:
[1] = molecular target: T1, human Ab42 species in protein extracts of GMC101 C. elegans worms (human); test: indirect ELISA on C. elegans protein extracts, N2 worms as reference
T1 construct: Target present in crude worm protein extracts coated on ELISA wells; also called NIAD-4 negative, toxic Ab42 species; Ab42 oligomers formed in vivo

[2] = molecular target: T2, Zn2+-stabilised Ab40 oligomers (UniProt P05067 672-711); test: ITC, DesAb-O injected into Ab40 oligomers, 25 C
T2 construct: domain: Ab1-40; Oligomers made by incubating Ab40 with ZnCl2 for 20 hours at 20 C

[3] = molecular target: T3, Ab42 species in hippocampus protein extracts of J20 mice (PDGF-APPSw,Ind) (human); test: indirect ELISA on hippocampus protein extracts of J20 mice, normalised to wild-type mice
T3 construct: Target present in crude hippocampus extracts coated on ELISA wells; 6E10 detects total Ab in the same extracts; also called Ab42 oligomers formed in vivo in a mouse model of AD

[4] = molecular target: T2, Zn2+-stabilised Ab40 oligomers; test: ITC, fit of double subtracted integrated peaks

T2 sequence (P05067 671-711 limits assumed): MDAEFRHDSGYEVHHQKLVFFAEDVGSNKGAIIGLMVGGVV
T3 sequence (peptide, as listed by the source): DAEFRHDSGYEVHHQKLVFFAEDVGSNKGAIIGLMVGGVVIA
T1 sequence (peptide, as listed by the source): as above

binding result [1]: binds
Kd [2]: ~500 nM
binding result [3]: binds
DH (ITC fit) [4]: -12.7 kcal/mol
Kd [4]: 440 nM
B1: DesAb-O (VHH)
VHH: EVQLVESGGGLVQPGGSLRLSCAASGFNIKDTYIGWVRRAPGKGEEWVASIYPTNGYTRYADSVKGRFTISADTSKNTAYLQMNSLRAEDTAVYYCAAGSESAFGRAEEEAAAWGQGTLVTVSS
notes: Rationally designed single-domain antibody (VH domain), expressed in E. coli, purified by Ni2+ chromatography and detected with an anti-6X His tag antibody; also called DesAb-0; Des-Ab-0
